These results are taken from US20230322953A1 (HARBOUR BIOMED SHANGHAI, published 2023).

Test [1] deals with T1, human CTLA4 on cells (CHO-K1/hCTLA4; HEK293/hCTLA4; 293F-hCTLA4) (human, UniProt P16410 36-223).
T1 construct: whole, on cells
Description: FACS, HEK293/hCTLA4 cells. In general terms: Flow cytometry measures light scatter and fluorescence of single cells or particles in a stream.

Test [2] has as its target T1, human CTLA4 on cells (CHO-K1/hCTLA4; …). Put plainly: FACS, CHO-K1/hCTLA4 cells (Test 2).
For test [3], the target named is T2, human PD-L1 on cells (CHO-K1/hPDL1; MDA-MB-231) (human, UniProt Q9NZQ7 19-290).
T2 construct: whole, on cells
Description: competition FACS: biotinylated PD-1 to CHO-K1/hPDL1 cells (Experiment 2).

In test [4] the target is T2, human PD-L1 on cells (CHO-K1/hPDL1; …). Put plainly: FACS, CHO-K1/hPDL1 cells (Experiment 2).
Test [5] concerns the target T3, human PD-L1 (programmed death ligand 1) (human, UniProt Q9NZQ7 19-290).
T3 construct: whole, on cells; also called hPDL1; CD274
Description: flow cytometry (FACS) on CHO-K1/hPDL1 cells, Experiment 1.

The target in test [6] is T4, human 4-1BB (tumor necrosis factor receptor superfamily member 9) (human, UniProt Q07011 24-255).
T4 construct: whole, on cells; also called hu 4-1BB; CD137
Description: flow cytometry (FACS) on CHO-K1/hu 4-1BB cells.

Test [7] concerns the target T5, human CD3 (TCR/CD3 complex) on human T cells (human, UniProt P07766 23-207).
T5 construct: whole, on cells
Put plainly: flow cytometry (FACS) on human T cells, Experiment 1.

A further test has as its target T6, human BCMA (human, UniProt Q02223 1-184).
T6 construct: whole, on cells; the cell line is named under assay; also called TNFRSF17; CD269
T6 sequence (looked up): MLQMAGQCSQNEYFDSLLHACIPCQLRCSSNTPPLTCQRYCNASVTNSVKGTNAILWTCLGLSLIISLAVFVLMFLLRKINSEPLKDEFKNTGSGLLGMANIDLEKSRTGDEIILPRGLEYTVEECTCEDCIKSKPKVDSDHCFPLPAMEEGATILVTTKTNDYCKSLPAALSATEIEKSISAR
Put plainly: flow cytometry, NCI-H929 cells.

Test [8] has as its target T7, biotinylated human BCMA-Fc, Avitag recombinant protein (ACRO Biosystems, #BC7-H82F0) (human, UniProt Q02223 1-54, biotinylated).
T7 construct: extracellular domain; Bought protein; also called human BCMA protein; recombinant human BCMA-ECD-Fc; not shown: Fc of the bought fusion protein; Avitag
T7 sequence (looked up): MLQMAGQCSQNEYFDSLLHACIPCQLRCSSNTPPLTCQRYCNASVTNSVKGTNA
Put plainly: BLI (Octet Red96e), biotinylated BCMA-Fc on SA sensor, antibody in solution, 1:1 global fit. On the technique in general: BLI is a label-free optical method that tracks binding on a fibre tip over time.

As usually defined, the EC50 is the concentration that produces a half-maximal response. A low value points to an effect from little substance. What is called IC50 is the midpoint of a concentration-inhibition curve. The Kd is the free concentration of one partner at which half of the binding sites on the other are occupied at equilibrium, for simple one-to-one binding. Usually koff stands for a measure of how fast the partners let go of each other. For orientation: kon means the second-order rate constant of association.

T3 sequence (Q9NZQ7 19-290): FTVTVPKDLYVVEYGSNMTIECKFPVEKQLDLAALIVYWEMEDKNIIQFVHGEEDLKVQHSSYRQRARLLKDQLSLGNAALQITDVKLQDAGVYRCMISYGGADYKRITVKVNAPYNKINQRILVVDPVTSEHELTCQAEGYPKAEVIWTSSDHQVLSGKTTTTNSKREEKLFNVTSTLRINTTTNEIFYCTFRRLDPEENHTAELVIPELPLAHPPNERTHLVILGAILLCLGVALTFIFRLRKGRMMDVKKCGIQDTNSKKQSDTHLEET
T2 sequence (Q9NZQ7 19-290): as above
T4 sequence (Q07011 24-255): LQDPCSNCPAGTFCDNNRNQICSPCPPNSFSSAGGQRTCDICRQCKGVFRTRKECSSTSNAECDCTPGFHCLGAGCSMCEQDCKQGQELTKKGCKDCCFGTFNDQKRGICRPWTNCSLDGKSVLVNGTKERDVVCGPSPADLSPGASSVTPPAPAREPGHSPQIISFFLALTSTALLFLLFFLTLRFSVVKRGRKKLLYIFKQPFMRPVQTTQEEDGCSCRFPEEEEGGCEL
T1 sequence (P16410 36-223): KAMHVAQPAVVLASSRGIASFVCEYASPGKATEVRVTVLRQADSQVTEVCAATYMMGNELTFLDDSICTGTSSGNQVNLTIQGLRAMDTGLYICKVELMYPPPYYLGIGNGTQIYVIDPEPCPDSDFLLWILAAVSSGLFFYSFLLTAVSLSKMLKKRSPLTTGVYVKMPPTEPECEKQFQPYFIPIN
T5 sequence (P07766 23-207, one chain of several): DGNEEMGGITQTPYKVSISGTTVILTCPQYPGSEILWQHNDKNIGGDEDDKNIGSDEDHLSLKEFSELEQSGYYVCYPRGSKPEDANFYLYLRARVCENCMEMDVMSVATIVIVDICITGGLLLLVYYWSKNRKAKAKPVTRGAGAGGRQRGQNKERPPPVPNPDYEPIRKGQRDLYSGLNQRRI

B1: PR000403 (bispecific antibody, human IgG1, kappa, L234A L235A)
chain 1: EVQLVESGGGLVQPGGSLRLSCAASGFTFSSYWMSWVRQAPGKGLEWVANIKQEGSEKYYVDSVKGRFTISRDNAKNSLYLQMNSLRAEDTAVYYCARDRAVAGAFDIWGQGTMVTVSSASTKGPSVFPLAPSSKSTSGGTAALGCLVKDYFPEPVTVSWNSGALTSGVHTFPAVLQSSGLYSLSSVVTVPSSSLGTQTYICNVNHKPSNTKVDKKVEPKSC
chain 2: DIQMTQSPSTLSASVGDRVTVTCRASQSIYIWLAWYQQKPGKAPNLLIYKASSLETGVPSRFSGSGSGTEFTLTISSLQPDDFATYYCQQYYGSSRTFGQGTKVEIKRTVAAPSVFIFPPSDEQLKSGTASVVCLLNNFYPREAKVQWKVDNALQSGNSQESVTEQDSKDSTYSLSSTLTLSKADYEKHKVYACEVTHQGLSSPVTKSFNRGECEVQLVESGGGLIQPGGSLRLSCAVSGFTVSKNYMSWVRQAPGKGLEWVSVVYSGGSKTYADSVKGRFTISRDNSKNTLYLQMNSLRAEDTAVYYCARAVPHSPSSFDIWGQGTMVTVSSEPKSCDKTHTCPPCPAPEAAGGPSVFLFPPKPKDTLMISRTPEVTCVVVDVSHEDPEVKFNWYVDGVEVHNAKTKPREEQYNSTYRVVSVLTVLHQDWLNGKEYKCKVSNKALGAPIEKTISKAKGQPREPQVYTLPPSREEMTKNQVSLTCLVKGFYPSDIAVEWESNGQPENNYKTTPPVLDSDGSFFLYSKLTVDKSRWQQGNVFSCSVMHEALHNHYTQKSLSLSPGK
notes: PD-L1×CTLA4, structure 1 Fab(CL)-VH-Fc
Regarding B1, in test [1], the EC50 amounted to 16.3 nM and the “Maximum MFI” value was 1410 MFI. In test [2], a half-maximal response (EC50) required 20.5 nM and the “Maximum MFI” value came out at 343 MFI. Besides, in test [3], the IC50 is 0.42 nM and the “Maximum inhibition rate (%)” value was determined as 81.4%. In test [4], the concentration giving a half-maximal response (EC50) is 0.73 nM and the “Maximum MFI” value stood at 8090 MFI.

B2: PR000701, PD-L1×4-1BB bispecific antibody molecule of FIT-Ig structure (bispecific antibody, human IgG4 S228P, kappa)
chain 1: not shown
chain 2: EVQLVESGGGLVQPGGSLRLSCAASGFTFSSYWMSWVRQAPGKGLEWVANIKQEGSEKYYVDSVKGRFTISRDNAKNSLYLQMNSLRAEDTAVYYCARDRAVAGAFDIWGQGTMVTVSSASTKGPSVFPLAPSSKSTSGGTAALGCLVKDYFPEPVTVSWNSGALTSGVHTFPAVLQSSGLYSLSSVVTVPSSSLGTQTYICNVNHKPSNTKVDKKVEPKSC
chain 3: not shown
notes: FIT-Ig; Fab A of PR000265 (PD-L1), Fab B of PR000197 (4-1BB) close to Fc; no linker; human IgG4
For B2, in test [5], a half-maximal effect (EC50) was put at 1.72 nM and the “Maximum MFI” value came out at 1710 MFI. In test [6], the midpoint of the response, the EC50, lay at 10.2 nM and the “Maximum MFI” value was determined as 1340 MFI.

B3: PR000404 (bispecific antibody, human IgG1, kappa)
chain 1: EVQLVESGGGLVQPGGSLRLSCAASGFTFSSYWMSWVRQAPGKGLEWVANIKQEGSEKYYVDSVKGRFTISRDNAKNSLYLQMNSLRAEDTAVYYCARDRAVAGAFDIWGQGTMVTVSSASTKGPSVFPLAPSSKSTSGGTAALGCLVKDYFPEPVTVSWNSGALTSGVHTFPAVLQSSGLYSLSSVVTVPSSSLGTQTYICNVNHKPSNTKVDKKVEPKSC
chain 2: not shown
notes: PD-L1×CTLA4, structure 1
As to B3, in test [1], the EC50 came out at 37.2 nM and the “Maximum MFI” value was 1620 MFI. Also, in test [2], a half-maximal response (EC50) required 26.9 nM and the “Maximum MFI” value turned out to be 339 MFI. In [3], the IC50 came out at 0.6 nM and the “Maximum inhibition rate (%)” value was found to be 81.1%. In [4], the EC50 was found to be 0.78 nM and the “Maximum MFI” value is 8100 MFI.

B4: PR003551, PD-L1×4-1BB bispecific antibody molecule of IgG-VH tetravalent symmetric structure (bispecific antibody)
light: DIQMTQSPSTLSASVGDRVTVTCRASQSIYIWLAWYQQKPGKAPNLLIYKASSLETGVPSRFSGSGSGTEFTLTISSLQPDDFATYYCQQYYGSSRTFGQGTKVEIKRTVAAPSVFIFPPSDEQLKSGTASVVCLLNNFYPREAKVQWKVDNALQSGNSQESVTEQDSKDSTYSLSSTLTLSKADYEKHKVYACEVTHQGLSSPVTKSFNRGEC
heavy: EVQLVESGGGLVQPGGSLRLSCAASGFTFSSYWMSWVRQAPGKGLEWVANIKQEGSEKYYVDSVKGRFTISRDNAKNSLYLQMNSLRAEDTAVYYCARDRAVAGAFDIWGQGTMVTVSSASTKGPSVFPLAPSSKSTSGGTAALGCLVKDYFPEPVTVSWNSGALTSGVHTFPAVLQSSGLYSLSSVVTVPSSSLGTQTYICNVNHKPSNTKVDKKVEPKSCDKTHTCPPCPAPEAAGGPSVFLFPPKPKDTLMISRTPEVTCVVVDVSHEDPEVKFNWYVDGVEVHNAKTKPREEQYNSTYRVVSVLTVLHQDWLNGKEYKCKVSNKALGAPIEKTISKAKGQPREPQVYTLPPSREEMTKNQVSLTCLVKGFYPSDIAVEWESNGQPENNYKTTPPVLDSDGSFFLYSKLTVDKSRWQQGNVFSCSVMHEALHNHYTQKSLSLSPGEPKSSDKTHTPPPPPRTEVQLLESGGGLVQPGGSLRLSCAASGFIFSNFAMTWVRQPPEKGLKWVSSINGSGFNTYYTDSVKGRFTISRDNSRNTLYLQMNRLTAEDTAVYFCAKEGSSETDDHYYNVDVWGQGTTVTVSS
notes: Structure 5; IgG PR000265, VH of PR001836 at C-terminus of heavy chain; linker H1_15-RT; human IgG1 (L234A, L235A, P329G)
Regarding B4, in test [5], the EC50 stood at 1.29 nM and the “Maximum MFI” value is 2150 MFI. Further, in test [6], the response was half-maximal at 3.15 nM (EC50) and the “Maximum MFI” value stood at 1570 MFI.

B5: PR001987 (bispecific antibody, human IgG1, lambda, L234A L235A)
light: QAVVTQEPSLTVSPGGTVTLTCRSSTGAVTTSNYANWVQQKPGQAPRGLIGGTNKRAPWTPARFSGSLLGDKAALTLLGAQPEDEAEYFCALWYSNLWVFGGGTKLTVLGQPKAAPSVTLFPPSSEELQANKATLVCLISDFYPGAVTVAWKADSSPVKAGVETTTPSKQSNNKYAASSYLSLTPEQWKSHRSYSCQVTHEGSTVEKTVAPTECS
heavy: EVQLLESGGGLVQPGGSLRLSCAASGFTFNTYAMNWVRQAPGKGLEWVSRIRSKYNNYATYYADSVKDRFTISRDDSKSTLYLQMNSLRAEDTAVYYCVRHGNFGNSYVSWFAYWGQGTLVTVSSASTKGPSVFPLAPSSKSTSGGTAALGCLVKDYFPEPVTVSWNSGALTSGVHTFPAVLQSSGLYSLSSVVTVPSSSLGTQTYICNVNHKPSNTKVDKKVEPKSCDKTHTCPPCPAPEAAGGPSVFLFPPKPKDTLMISRTPEVTCVVVDVSHEDPEVKFNWYVDGVEVHNAKTKPREEQYNSTYRVVSVLTVLHQDWLNGKEYKCKVSNKALGAPIEKTISKAKGQPREPQVYTLPPCREEMTKNQVSLWCLVKGFYPSDIAVEWESNGQPENNYKTTPPVLDSDGSFFLYSKLTVDKSRWQQGNVFSCSVMHEALHNHYTQKSLSLSPGK
chain: EVQLLESGGGLVQPGGSLRLSCAASGFTFSSYAMIWVRQAPGKGLEWVSGISESGGSTYYADSVKGRFTISRDNSKNTLYLQMNSLRAEDTAVYFCVKDLDDILTGYYKDYWGQGTLVTVSSASEPKSSDKTHTCPPCPAPEAAGGPSVFLFPPKPKDTLMISRTPEVTCVVVDVSHEDPEVKFNWYVDGVEVHNAKTKPREEQYNSTYRVVSVLTVLHQDWLNGKEYKCKVSNKALGAPIEKTISKAKGQPREPQVCTLPPSREEMTKNQVSLSCAVKGFYPSDIAVEWESNGQPENNYKTTPPVLDSDGSFFLVSKLTVDKSRWQQGNVFSCSVMHEALHNHYTQKSLSLSPGK
notes: Structure 11 (Fab-Fc-VH): CD3 Fab from PR000511, BCMA VH from PR000940; human IgG1 knob/hole, AAG; also called BCMA×CD3 bispecific antibody molecule of Fab-Fc-VH asymmetric structure
Consider B5, for which, in test [7], the “Maximum MFI” value turned out to be 5160 MFI.

B6: PR000940, anti-BCMA HCAb antibody, clone 1005P10H8 (antibody, human IgG1, V domains shown)
VH: EVQLLESGGGLVQPGGSLRLSCAASGFTFSSYAMIWVRQAPGKGLEWVSGISESGGSTYYADSVKGRFTISRDNSKNTLYLQMNSLRAEDTAVYFCVKDLDDILTGYYKDYWGQGTLVTVSS
notes: Heavy-chain-only antibody (HCAb), human IgG1 Fc, no light chain
Turning to B6, in the test with human BCMA, the EC50 was 1.85 nM and the “Maximum MFI” value was 91000. For the same molecule, in [8], the Kd was found to be 0.152 nM, the koff was determined as 6.09e-05 s⁻¹ and the kon was 401000 M⁻¹ s⁻¹.
